For five molecules, fold repression results are on record in paper PMC3817407.

B1: AS15_524 (protein)
chain: MNFGVEDMIEHVPMEDKRKGAAALDEARLRQQAIGVKLRQMFDEVVNEPVPDEFLAILRKAERPAGGE
B2: AS14_1324 (protein)
chain: MSGSRPEPEGHLAEQHLGDRLSALVDGELGHDARERVLAHVATCPKCKAEVDAQRRLKNVFAEAAPPAPSESFLARLQGLPGGGDSDGGGSPFSGLPGGFGASAASGVFGPRRDERFEFDYVPAGSHTPVLPSATSGRGFRIHEVGRHESDRSASRGLRFAFAAAGAVSLAAIALGGVTLGTPDTTTEARGSGSGSNVTPLRTPGSAAATGSESQRRRTAGPLLGQGQRALGDLPVASTTASAPLLPGMPAPAGGDARQQAVRALTTPVTAGAAAMSPLIRPLEAVPPLSLSSWSAAPEVRPPGLLAAPDPAPSPYPAASPAASSSPLR
B3: AS16_973 (protein)
chain: MKTDDLIALLAAGEGPVPRHAVGRRMAVAALGGLTAALLLTITLYGVRSDITEVAQTPLFWGKVAFPTSLALIGLWLTSRLARPGGKGAAGWKMLGLPLLLVWCGAAVSIAGAPVDARADLLFGRTWRTCALNIALLSVPAFVTVFWALKGLAPTRLRLAGAAGGLLAGSSATVAYCLHCPEMGVPFWGVWYVLGMLVPTVLGAWWGPRMLRW
B4: AS16_3622 (protein)
chain: MMKTDELISLLATAEGPVDRHALARRLGLALLAGLLGALLLTVALYGVRSDLAEVARTPLFWAKVALPTSLALLGLWLTQRLARPGVRGGALWGLLGVPLLLVWLGAAISLFGAPPEARADLIFGRTWRTCALNITLLSTPVFIAVFWALRGLAPTRLRQAGAAGGLLAGSTATLVYCLHCPEMGVPFWGLWYLLGMLVPTLLGAVLGPRLLRW
B5: AS15_436 (protein)
chain: MAQSTEPKASPQEATAKGGDNTKGKSRKELQQQIDENLRRVYEEALVQEVPDRFAMLLDQLRQKGTGK

For the first assay, the target named is T1, ECF03_1244.
T1 chain: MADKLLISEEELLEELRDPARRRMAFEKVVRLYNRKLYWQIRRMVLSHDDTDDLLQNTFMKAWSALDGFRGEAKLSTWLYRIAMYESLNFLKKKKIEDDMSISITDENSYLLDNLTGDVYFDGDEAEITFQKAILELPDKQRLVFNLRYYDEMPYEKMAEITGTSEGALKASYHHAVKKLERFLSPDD
Consider B1, for which the fold repression was 2.96.

Consider B2, for which the fold repression was determined as 3.13.

As to B3, the fold repression came out at 0.783.

With B4, the fold repression was found to be 2.09.

For B5, the fold repression worked out at 1.54.

The target of another assay is T2, ECF11_3726.
T2 chain: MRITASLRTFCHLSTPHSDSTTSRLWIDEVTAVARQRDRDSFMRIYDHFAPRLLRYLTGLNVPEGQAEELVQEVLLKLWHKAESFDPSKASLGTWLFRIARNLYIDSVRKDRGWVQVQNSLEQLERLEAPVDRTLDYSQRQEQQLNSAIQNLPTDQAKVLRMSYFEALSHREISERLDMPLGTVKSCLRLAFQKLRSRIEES
For B1, the fold repression was 8.06.

On to B2, for which the fold repression stood at 11.

Turning to B3, the fold repression came out at 1.29.

Consider B4, for which the fold repression is 6.84.

Consider B5, for which the fold repression came out at 7.87.

In the next assay the target is T3, ECF28_1088.
T3 chain: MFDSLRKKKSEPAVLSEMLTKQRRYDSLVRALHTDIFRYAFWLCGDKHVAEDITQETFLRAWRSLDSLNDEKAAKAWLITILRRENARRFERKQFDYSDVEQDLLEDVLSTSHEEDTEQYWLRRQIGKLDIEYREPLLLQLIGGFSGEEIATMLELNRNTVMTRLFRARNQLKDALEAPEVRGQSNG
Regarding B1, the fold repression was 3.64.

Regarding B2, the fold repression was 3.46.

Turning to B3, the fold repression is 1.04.

B4: the fold repression amounted to 2.18.

Consider B5, for which the fold repression turned out to be 2.98.

The next assay addresses T4, ECF37_2513.
T4 chain: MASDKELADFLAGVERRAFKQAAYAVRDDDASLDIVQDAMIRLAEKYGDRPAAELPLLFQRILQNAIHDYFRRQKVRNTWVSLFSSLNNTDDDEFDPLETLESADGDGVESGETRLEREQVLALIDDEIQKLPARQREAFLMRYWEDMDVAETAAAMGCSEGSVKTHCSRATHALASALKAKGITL
Take B1: the fold repression came out at 4.17.

Regarding B2, the fold repression amounted to 3.89.

Regarding B3, the fold repression is 1.04.

On to B4, for which the fold repression was found to be 4.97.

As to B5, the fold repression stood at 5.1.

Another assay addresses T5, ECF34_1384.
T5 chain: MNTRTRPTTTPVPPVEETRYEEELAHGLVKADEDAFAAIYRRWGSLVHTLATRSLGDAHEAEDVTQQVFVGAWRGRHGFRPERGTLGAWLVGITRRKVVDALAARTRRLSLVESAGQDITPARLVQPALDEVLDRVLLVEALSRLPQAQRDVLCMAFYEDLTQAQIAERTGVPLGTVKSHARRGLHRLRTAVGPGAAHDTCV
In the case of B1, the fold repression worked out at 5.15.

As to B2, the fold repression is 2.76.

Turning to B3, the fold repression amounted to 0.757.

As to B4, the fold repression stood at 2.8.

For the molecule B5, the fold repression came out at 2.2.

Another assay addresses T6, ECF16_973.
T6 chain: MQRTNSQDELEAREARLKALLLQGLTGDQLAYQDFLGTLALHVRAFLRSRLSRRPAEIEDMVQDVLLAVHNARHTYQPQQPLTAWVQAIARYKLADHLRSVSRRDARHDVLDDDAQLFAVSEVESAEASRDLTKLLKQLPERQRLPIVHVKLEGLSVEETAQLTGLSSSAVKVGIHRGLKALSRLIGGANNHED
With B1, the fold repression was determined as 4.98.

B2: the fold repression turned out to be 4.45.

For B3, the fold repression stood at 58.6.

In the case of B4, the fold repression amounted to 131.

As for B5, the fold repression worked out at 3.01.

For a further assay, the target named is T7, ECF33_423.
T7 chain: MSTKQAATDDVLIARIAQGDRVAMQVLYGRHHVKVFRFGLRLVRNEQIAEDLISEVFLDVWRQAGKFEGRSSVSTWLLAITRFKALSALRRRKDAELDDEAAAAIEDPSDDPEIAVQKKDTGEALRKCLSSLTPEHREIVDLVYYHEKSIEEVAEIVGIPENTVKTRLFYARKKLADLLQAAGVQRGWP
As to B1, the fold repression is 6.68.

As to B2, the fold repression stood at 4.28.

B3: the fold repression amounted to 0.683.

With B4, the fold repression amounted to 1.87.

Consider B5, for which the fold repression turned out to be 3.04.

For a further assay, the target named is T8, ECF16_3622.
T8 chain: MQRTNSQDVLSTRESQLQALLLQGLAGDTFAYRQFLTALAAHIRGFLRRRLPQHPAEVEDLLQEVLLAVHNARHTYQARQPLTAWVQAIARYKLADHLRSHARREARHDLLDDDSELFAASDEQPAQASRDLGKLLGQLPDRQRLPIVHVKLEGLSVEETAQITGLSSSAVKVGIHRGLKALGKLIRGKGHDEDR
On to B1, for which the fold repression was found to be 7.87.

For the molecule B2, the fold repression was 6.46.

With B3, the fold repression worked out at 57.

For B4, the fold repression turned out to be 254.

For the molecule B5, the fold repression was determined as 6.45.

In another assay the target is T9, ECF03_1198.
T9 chain: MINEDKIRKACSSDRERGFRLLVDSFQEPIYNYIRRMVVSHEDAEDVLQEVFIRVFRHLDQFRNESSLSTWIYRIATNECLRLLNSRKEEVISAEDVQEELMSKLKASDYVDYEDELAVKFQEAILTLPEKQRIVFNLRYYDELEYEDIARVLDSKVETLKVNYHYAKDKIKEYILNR
Consider B1, for which the fold repression is 3.92.

Turning to B2, the fold repression is 3.58.

Regarding B3, the fold repression was 0.72.

Regarding B4, the fold repression is 2.71.

Turning to B5, the fold repression turned out to be 3.84.

The target of a further assay is T10, ECF14_3200.
T10 chain: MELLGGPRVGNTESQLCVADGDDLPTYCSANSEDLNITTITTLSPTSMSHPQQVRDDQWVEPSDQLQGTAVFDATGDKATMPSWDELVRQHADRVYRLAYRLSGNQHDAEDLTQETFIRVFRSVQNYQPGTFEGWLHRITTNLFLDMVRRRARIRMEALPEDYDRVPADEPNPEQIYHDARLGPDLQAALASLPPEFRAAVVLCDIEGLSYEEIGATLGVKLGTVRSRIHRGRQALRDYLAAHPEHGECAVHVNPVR
With B1, the fold repression was found to be 12.9.

For B2, the fold repression stood at 35.5.

In the case of B3, the fold repression amounted to 0.918.

For the molecule B4, the fold repression amounted to 8.73.

Regarding B5, the fold repression turned out to be 9.47.

The next assay has as its target T11, ECF27_4265.
T11 chain: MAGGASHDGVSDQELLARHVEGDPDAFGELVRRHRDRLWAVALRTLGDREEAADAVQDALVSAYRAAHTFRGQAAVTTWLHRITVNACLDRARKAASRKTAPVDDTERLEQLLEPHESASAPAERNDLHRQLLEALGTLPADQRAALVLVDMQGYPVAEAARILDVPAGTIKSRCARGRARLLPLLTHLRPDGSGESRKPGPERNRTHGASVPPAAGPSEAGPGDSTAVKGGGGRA
In the case of B1, the fold repression was found to be 4.51.

With B2, the fold repression was 2.31.

As for B3, the fold repression is 0.412.

In the case of B4, the fold repression came out at 1.45.

B5: the fold repression stood at 2.89.

The next assay addresses T12, ECF38_1322.
T12 chain: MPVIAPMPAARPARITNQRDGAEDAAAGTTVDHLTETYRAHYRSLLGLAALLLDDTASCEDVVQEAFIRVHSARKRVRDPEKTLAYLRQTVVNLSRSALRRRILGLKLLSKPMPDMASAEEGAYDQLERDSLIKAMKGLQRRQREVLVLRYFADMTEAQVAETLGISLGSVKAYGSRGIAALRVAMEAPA
As to B1, the fold repression stood at 4.8.

Turning to B2, the fold repression stood at 2.76.

Consider B3, for which the fold repression was 0.629.

Take B4: the fold repression worked out at 2.34.

As to B5, the fold repression turned out to be 2.66.

Another assay deals with T13, ECF28_1040.
T13 chain: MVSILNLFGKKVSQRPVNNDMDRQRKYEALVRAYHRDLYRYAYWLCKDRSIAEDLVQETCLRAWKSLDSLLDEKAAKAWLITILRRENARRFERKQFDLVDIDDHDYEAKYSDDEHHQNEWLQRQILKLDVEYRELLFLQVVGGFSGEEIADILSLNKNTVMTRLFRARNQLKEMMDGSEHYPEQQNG
In the case of B1, the fold repression turned out to be 4.67.

B2: the fold repression stood at 4.3.

For the molecule B3, the fold repression was 1.39.

As for B4, the fold repression was 3.02.

For the molecule B5, the fold repression was found to be 4.28.

Another assay deals with T14, ECF30_35.
T14 chain: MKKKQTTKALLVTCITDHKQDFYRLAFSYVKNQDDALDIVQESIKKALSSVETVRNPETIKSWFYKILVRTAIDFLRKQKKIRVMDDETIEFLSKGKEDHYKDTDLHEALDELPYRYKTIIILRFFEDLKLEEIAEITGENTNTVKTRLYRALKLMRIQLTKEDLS
Turning to B1, the fold repression was found to be 5.98.

For B2, the fold repression is 3.36.

Regarding B3, the fold repression amounted to 0.463.

As to B4, the fold repression turned out to be 0.992.

Take B5: the fold repression worked out at 2.1.
